Reference: patent US10568344B2, “Methods of improving animal performance” (Novozymes A/S, priority 2015, dated 2020)
Where two headings read alike, the source gives them in different places. Marks after values point to notes of the source that are not given here.

Key:
[1] = system: Exiguobacterium undae (DSM14481); experiment: Lysozyme activity turbidity assay (optical density drop); assay type: biochemical; conditions: pH 6
[2] = system: Micrococcus lysodeikticus ATTC No. 4698; experiment: as above; conditions: pH 6
[3] = In vivo piglet trial, growth performance; set-up: species or system weaned piglets
Procedure: The trial was performed from Oct. 23 to Dec. 4, 2014 at the Research Center for Animal Nutrition (DSM Nutritional Products France, F-68305 Village-Neuf) according to the official French guidelines for experiments with live animals. One hundred and four castrated male crossbred (Large-White (female)×Redon (male)) weaned piglets having 28 days of age supplied by the commercial farm “[…] du Rhin” located in Balgau (France), were used in a 42-day experiment. The initial bodyweight of the piglets was 7.88±0.675 kg. They were sorted by body weight into 32 groups of 3 or 4 piglets and randomly allotted to each dietary treatment. Each group of animals was placed in one flat-deck cages and allocated to one of the different treatments. Each treatment was replicated with 8 cages using a total of 26 animals (6 cages of 3 animals/treatment and 2 cages of 4 animals/treatment) per treatment. […] Animals were housed in an environmentally controlled room. Room temperature was initially 27° C. and was lowered weekly by about 2° C. until 21-22° C. and relative humidity percentage was 50%. The experimental diets (Pre-Starter and Starter) were fed ad libitum in two feeding phases from day 0 to 14 (phase 1, Pre-starter) and day 14 to 42 (phase 2, Starter). The ingredient composition and the calculated nutrient levels of the experimental diets for phases 1 and 2 are presented in table 11. Both diets were formulated to meet the animals' requirements according NRC (2012) and were fed in pelleted form. Pelleting conditions were at 70° C. for 30 seconds. […] No additional enzymes (e.g. phytase) were added to the feed. […] Appropriate amount of the liquid preparations of lysozyme was diluted in water and sprayed onto the respective pelleted feed to get the final concentrations in the feed corresponding to the different treatments. For procedural balance of all treatments the same volume of water were also sprayed onto the pellets of the control diets. Body weight of the individual animals and feed consumption per pen were recorded on days 14 and 42 of the study. […] The experimental unit was the piglet, except for ADFI and FCR which were measured by cage, and in both cases, treatment was used as class variable. One-factorial ANOVA and Student-Newman-Keuls test was used to assess differences among means in treatment groups.

[4] = In vivo broiler trial 3, growth performance; set-up: species or system male broiler chickens; Motality: unit not given here
Procedure: The in vivo trial was carried out as described in example 7, except the feed was supplemented with the GH25 lysozyme (SEQ ID NO: 1) at 12.5 or 25 mg per kg feed, the GH24 lysozyme (SEQ ID NO: 4) at 12.5 or 25 mg per kg feed or with Avilamycin at an inclusion level of 10 mg/kg. No additional enzymes (e.g. phytase) were added to the feed. The experimental diets (Starter, Grower and Finisher) were based on soybean meal, wheat and rye (12%) as main ingredients (Table 8). The diets were formulated to contain 225 g crude protein and 12.5 MJ/kg MEN for the starter period, 215 g crude protein and 12.8 MJ/kg MEN for the grower period and 205 g crude protein and 13.0 MJ/kg MEN for the finisher period.

[5] = system: Clostridium perfringens DSM756; assay type: cell-based; conditions: for Diameter of clearing zone: lysozymes 100 μg/ml, bacitracin 50 μg/ml
[6] = Finisher (d 36-42), 12.5 mg/kg feed
[7] = Finisher (d 36-42), 25 mg/kg feed
[8] = Grower (d 22-36), 12.5 mg/kg feed
[9] = Grower (d 22-36), 25 mg/kg feed
[10] = Starter (d 1-22), 12.5 mg/kg feed
[11] = Starter (d 1-22), 25 mg/kg feed
[12] = Whole period (d 1-42), 12.5 mg/kg feed
[13] = Whole period (d 1-42), 25 mg/kg feed

B1: SEQ ID NO: 4: mature amino acid sequence of a wild type GH24 lysozyme from Trichophaea saccata (protein, listed as Trichophaea saccata)
chain: YPVKTDLHCRSSPSTSASIVRTYSSGTEVQIQCQTTGTSVQGSNVWDKTQHGCYVADYYVKTGHSGIFTTKCGSSSGGGSCKPPPINAATVALIKEFEGFVPKPAPDPIGLPTVGYGHLCKTKGCKEVPYSFPLTQETATKLLQSDIKTFTSCVSNYVKDSVKLNDNQYGALASWAFNVGCGNVQTSSLIKRLNAGENPNTVAAQELPKWKYAGGKVMPGLVRRRNAEVALFKKPSSVQAHPPKC
modifications: mat_peptide (1)..(245)
Lysozyme activity as measured by Optical Density Drop [1]: ++ (pH 6)
Lysozyme activity as measured by Optical Density Drop [2]: ++ (pH 6)
ADFI, % relative NC ([3]; day 0-14, 50 ppm): 92.5%
ADFI, Mean ([3]; day 0-14, 50 ppm): 333 g/day
ADWG, % relative NC ([3]; day 0-14, 50 ppm): 91.4%
ADWG, Mean ([3]; day 0-14, 50 ppm): 265 g/day
FCR, % relative NC ([3]; day 0-14, 50 ppm): 102.6%
FCR, Mean ([3]; day 0-14, 50 ppm): 1.272^b
ADFI, % relative NC ([3]; day 0-42, 50 ppm): 100.8%
ADFI, Mean ([3]; day 0-42, 50 ppm): 740^b g/d
ADWG, % relative NC ([3]; day 0-42, 50 ppm): 107.8%
ADWG, Mean ([3]; day 0-42, 50 ppm): 538 g/day
EPEF, % relative NC ([3]; day 0-42, 50 ppm): 115.3%
EPEF, Mean ([3]; day 0-42, 50 ppm): 391
FCR, % relative NC ([3]; day 0-42, 50 ppm): 92.9%
FCR, Mean ([3]; day 0-42, 50 ppm): 1.379^a
ADFI, % relative NC ([3]; day 14-42, 50 ppm): 101.5%
ADFI, Mean ([3]; day 14-42, 50 ppm): 944^c g/d
ADWG, % relative NC ([3]; day 14-42, 50 ppm): 111.8%
ADWG, Mean ([3]; day 14-42, 50 ppm): 674 g/day
FCR, % relative NC ([3]; day 14-42, 50 ppm): 90.9%
FCR, Mean ([3]; day 14-42, 50 ppm): 1.404^a
Improvement on FCR compared to the negative control ([3]; overall period (day 0 to day 42), 50 mg/kg): 7.1%
Improvement to FCR compared to NC ([3]; starter period, day 15 to day 42, 50 mg/kg): 9.1%
Improvement of ADWG compared to the negative control diet ([3]; starter period, 50 mg/kg): 11.8%
EPEF improvement compared to the negative control ([3]; whole period, 50 mg/kg): 15.3%
Improvement of ADWG compared to the negative control diet ([3]; whole period, 50 mg/kg): 7.8%
Benefit over the NC diet ([4]; 12.5 mg/kg): did not show any benefit
FCR [4, 6]: 1.969
FCR, Relative to C (%) [4, 6]: 100.4%
Feed intake [4, 6]: 1560 g/b
Feed intake, Relative to C (%) [4, 6]: 104.8%
Weight gain [4, 6]: 795 g/b
Weight gain, Relative to C (%) [4, 6]: 104.4%
FCR [4, 7]: 1.919
FCR, Relative to C (%) [4, 7]: 97.9%
Feed intake [4, 7]: 1524 g/b
Feed intake, Relative to C (%) [4, 7]: 102.5%
Weight gain [4, 7]: 800 g/b
Weight gain, Relative to C (%) [4, 7]: 105.1%
FCR [4, 8]: 1.692
FCR, Relative to C (%) [4, 8]: 98.2%
Feed intake [4, 8]: 2298 g/b
Feed intake, Relative to C (%) [4, 8]: 100.5%
Weight gain [4, 8]: 1359 g/b
Weight gain, Relative to C (%) [4, 8]: 102.4%
FCR [4, 9]: 1.714
FCR, Relative to C (%) [4, 9]: 99.5%
Feed intake [4, 9]: 2336 g/b
Feed intake, Relative to C (%) [4, 9]: 102.2%
Weight gain [4, 9]: 1364 g/b
Weight gain, Relative to C (%) [4, 9]: 102.7%
FCR [4, 10]: 1.469
FCR, Relative to C (%) [4, 10]: 102.0%
Feed intake [4, 10]: 1608 g/b
Feed intake, Relative to C (%) [4, 10]: 101.9%
Weight gain [4, 10]: 1095 g/b
Weight gain, Relative to C (%) [4, 10]: 99.9%
FCR [4, 11]: 1.414
FCR, Relative to C (%) [4, 11]: 98.1%
Feed intake [4, 11]: 1603 g/b
Feed intake, Relative to C (%) [4, 11]: 101.6%
Weight gain [4, 11]: 1133 g/b
Weight gain, Relative to C (%) [4, 11]: 103.4%
EPEF [4, 12]: 408
EPEF, Relative to C (%) [4, 12]: 97.6%
FCR [4, 12]: 1.683
FCR, Relative to C (%) [4, 12]: 100.2%
Feed intake [4, 12]: 5466 g/b
Feed intake, Relative to C (%) [4, 12]: 102.1%
Motality [4, 12]: 11.3
Weight gain [4, 12]: 3249 g/b
Weight gain, Relative to C (%) [4, 12]: 102.0%
EPEF [4, 13]: 425
EPEF, Relative to C (%) [4, 13]: 101.7%
FCR [4, 13]: 1.657
FCR, Relative to C (%) [4, 13]: 98.6%
Feed intake [4, 13]: 5450 g/b
Feed intake, Relative to C (%) [4, 13]: 101.9%
Motality [4, 13]: 10.0
Weight gain [4, 13]: 3290 g/b
Weight gain, Relative to C (%) [4, 13]: 103.3%
EPEF improvement compared to NC diet ([4]; whole period, 25 mg/kg): 2.4%
FCR improvement compared to NC diet ([4]; whole period, 25 mg/kg): 1.2%
Diameter of clearing zone ([5]; Experiment 1, 1/2 MHB pH 6): 11 mm
Diameter of clearing zone ([5]; Experiment 1, 1/10 MHB pH 7): 9 mm
Diameter of clearing zone ([5]; Experiment 2, 1/2 MHB pH 6): 10 mm
Diameter of clearing zone ([5]; Experiment 2, 1/10 MHB pH 7): 8 mm
Zones around the wells challenged with the enzyme ([5]; both conditions tested (1/10 MHB pH 7 and ½ MHB pH 6)): 8-11 mm
